For the test, the target named is HLA-A*0201. Put plainly: T2 stabilization assay (BB7.2 anti-HLA-A2 staining). To be noted: peptide-pulsed T2 cells; parent: est. 100; read off a plot.

Regarding wild type p53 65-73 peptide (…) A5G, the percent of parent came out at 100%. The value for wild type p53 65-73 peptide (…) A6G was 68%; that for wild type p53 65-73 peptide (…) E4A was 76%; that for wild type p53 65-73 peptide (…) E4G was 100%. For the substance wild type p53 65-73 peptide (…) M2A, the percent of parent was determined as 89%. Then wild type p53 65-73 peptide (…) M2G, with 89%. Regarding wild type p53 65-73 peptide (…) P3A, the percent of parent is 61%.

For wild type p53 65-73 peptide (…) P3G, the percent of parent stood at 65%. Then wild type p53 65-73 peptide (…) P7A, with 84%; and wild type p53 65-73 peptide (…) P7G, with 47%; and wild type p53 65-73 peptide (…) P8A, with 89%. As for wild type p53 65-73 peptide (…) P8G, the percent of parent amounted to 72%. Regarding wild type p53 65-73 peptide (…) R1A, the percent of parent was 120%.

Turning to wild type p53 65-73 peptide (…) R1G, the percent of parent was determined as 100%. wild type p53 65-73 peptide (…) V9A: the percent of parent turned out to be 110%.

Turning to wild type p53 65-73 peptide (…) V9G, the percent of parent stood at 67%.

Source of the values: PMC8034716.
